Experiment: label from the status in PepcDB records

| Sequence | protein production |
| --- | --- |
| MVLMRYVGKRDLFTVGKYLGTIMQGVGFVVALPVFVAIIYGEGNLQSFIIPAFISLGAGTVLKRYLPEECSVRLKHGMMVACLAWLWAGLIGSLIMISALNIDFTNAFFENMSAWTGSGLTIFSSVESLPKSILFLRSLEQWIGGLGVVIVVIGILIRPGTAASRLYKSEARDERIKPSIANTVKTIWWIYITYTVLGIVLYGLTGMPLFDAINNTLTNLSTGGMSIKNMNIGYYHSAAVYLVTMLLMILGGTSFLVHYQLIKGRFFSVLHDIQLQATVVFISIFTILAVYVGGVAPLESIYHVISALSCTGSSISSTPQMVAWPAYFKVLLITCMLIGMAAGSTTGAVKIIRVITVLKGVYWEIMRILAPEGSVMPRKISGKSVSDTEIREAGSYISLYFVLLFFTWSVLVVYGYDPLNSLFEAASAQGNVGLSMGITSFNLPVVPKMALILSMWLGRLEIIPVIVLIRGLVEAFKAG | failed |
| MAGLVKKTTGLVGLAVCDTPHERLTILYTKILDLLKHFPKHAAYRKYTEQITSEKLELVKLEPDVKKLENLLQGGEVEEVILQAEKELSLARKMLQWKPWEPLVEEPPANQWKWPI | failed |
| MLPGVGVFGTSLTARVIIPLLKDEGFAVKALWGRTQEEAEELAKEMSVPFYTSRIDEVLLHQDVDLVCINLPPPLTRQIAVKTLGIGKNVICDRTATPLDAFRMTSAAHYYPKLMSIMGNVLRFLPAFVRMKQLIEEGYVGEPLVCEVQVHGGSLLGKKYNWSCDDLMGGGGLHSVGTYIIDLLTFLTGQKAVKVHGLLKTFVKQTDHIKGIRQITSDDFCTFQMVLEGGVCCTVTLNFNVPGEFKQDVTVVGSAGRLLAVGTDLYGQRNSAPEQELLVQDATPVSNSLLPEKAFSDIPSPYLRGTIKMMQAVRQAFQDQDDRRTWDGRPLTMAATFDDCLYALCVVDTIKRSSQTGEWQNIAIMTEEPELSPAYLISEAMRRSRMSLYC | failed |
| MPVRASIEPLTWENAFFGVNSAIVRITSEAPLLTPDALAPWSRVQAKIAASNTGELDALQQLGFSLVEGEVDLALPVNNVSDSGAVVAQETDIPALRQLASAAFAQSRFRAPWYAPDASGRFYAQWIENAVRGTFDHQCLILRAASGDIRGYVSLRELNATDARIGLLAGRGAGAELMQTALNWAYARGKTTLRVATQMGNTAALKRYIQSGANVESTAYWLYR | not failed |
| MVGSVYTLFLYFSIILGVIVGVRTRSFHSSLAVLVFSSTFVAGIKYNNSYIAIISWLALSTLSSYLFHLNVIIKSRKDESVSNVLMGYLLGFFILLTLKLHGAGWILSILASYWVFYILLMFDYSKNRRAYYLLKTLWIIFSWGALIEAFGLQKELLPFLVVYTLIFILWFKRQEYSPT | failed |
| MIVPGGFPAPVTGSAVAASPPLPTVRLLSLDAHGRVLDWINWQDAACLYARDAVSWTLGEPCMQIHGGVSRLTGERSVLELHPIIAARGHARSRALDPTPTLTNTALFARDSQLCMYCGQHFSRPHLTRDHVMPVSKGGRDSWENVVTACFQCNSRKANRTPQQAHMPLLAVPYRPSWIEHLILSNRNILSDQMAFLRAQLPKRSKLSLLEHHHHHH | failed |
| YDFIDNPGFDESHSLTEMREAFLSFFEDRDHERIDPYPVAANRWRDDVLLTQASIYDFQPLVTSGTTPPPANPLCISQPCIRMQDIDNVGKTGRHTMAFEMMAHHAFNAREDIEDPEQYAYEGEVYWKNETVQYCDELFEEMGANLDEIVYIEDPWVGGGNAGPAIEVIYRGAELATLVFMSMEQDSDGEYEMKDGNRYSPMDTYIVDTGYGLERWTWMSQGTPTVYEAVYPDMIAFLKDNAGIELTDEEERIVHEAAKLAGRMDI | failed |
| MKSVGQALENQGRVPRNTNDELIQMILADAQVAEFIKTHQLSQREINISMSKFNQFLIERQKFKNKDSQYIAKGYEPILVMNEGYADVSYLETRELIEAQKKQAISDRINLVNLPKSYRNIRMTDFDINNESRMKAMSQLLDFVETYPSYNHKGLYLYGDMGVGKSYLMAAMARELSERKGVSTTLLHFPSFAIDVKNAISSGTVKDEIDAVKSVPILILDDIGAEQATSWVRDEILQVILQHRMLEELPTFFTSNYSFNDLERKWANIKGSDETWQAKRVMERVRYLAIEFHLEGPNRR | failed |
| AADHVKGDGKLTSKKISVADYNEIKVDGVIDFNYEQSDDPSTVEVTVDQNLHPYVNIEVKDRVLTIAFKGAKVDHFTKFIVKTNSKWLAAAKVSGNANFMVNSPLTGDETVIKANANSLVQLKETVTVGKLDLNVSGSANMVVNHLEADKIECDIDGSGSITIKKGNAKEGDYSIVSSGDIHAFGLAVPQLSCKVTGNGLAEVHATDNLKANVVGKGNIRYKGPTAVQQRIIGKGTVEEVKE | not failed |
| MSMKGKETMSNEKIVVGKFGATYGIRGWLKVFSYTDNAESIFDYSPWYINQKGKWVEYKVESWKRHNKGMVAKLEGMDVREDAHLMTNFEIAIDPAVLPELSEDEFYWRELFGMHVVTTKGYDLGVVTDMLETGSNDVLVVKANLKDAFGQKERLIPFLEEQVIIKVDREAQRIEVDWDPGFLEHHHHHH | not failed |
| MLKFLKNWTLPIAMLVGAVGYPVFISFSFLTPILIFTMLLLTFCKVSPRDLKPKPLHLWLLLIQIFGSLIVYLLLYRFNKIVAEGAMVCVICPTATAAAVITSKLGGSAASLTTYTLIANIGAAIAVPILFPLIEANPGISFIDAFLVILSKVFPLLICPFLAAWFLQRFIPKVHKVLLGYHELAFYLWGISLAIVTAQTLYSLINDPADGLTEIMIAVVALIACCLQFFLGKTLGSIYNDRISGGQALGQKNTILAIWMAHTYLNPLSAVGPGSYVLWQNIINSWQLWKKRKKESEKCSNNVSG | failed |
| MASGMGVDENCVARFNELKIRKTVKWIVFKIENTKIVVEKDGKGNADEFRGALPANDCRFGVYDCGNKIQFVLWCPDNAPVKPRMTYASSKDALLKKLDGATAVALEAHEMGDLAALA | failed |
| MIQEKHLTFTINLLVSLFFLTILIIPKGYNYAPIILSAIGLIYFIPLKKKLSFSSEDKKLIFSFLFYFFTFLLSIIINKDGIREIDNPSRLLLFIPLLLLFKNFPIKRKTILYAIPSSALITGCVALFQKFALGYEKPFPETMHIQMGNIAISLATFSIVITLHFFIKKQYKSTLFGFVAIILAIMTSALSGARGGWIGLPVVVGIILFLYKEFINKKLIITLIAIITIGLTALITSPKFGIEKRYNAAKSDIVSYLEKNNRNTSLGARFDMWENALIAIKEAPIFGHGSDGYDEFRHKQVKSKQMAKTTLNFGSLHNQYLESWVKRGLVGFIALILIILTPIFYFIKNLNTHNLETKCICILGIIHIVSHIFYFTSQSFLAHNSGNIFYFSAMLCFIV | failed |
| LADGDFIDLDWHGPHQPHAPLVIVLHGLTGSSHSPYVKGLQQALQDRGWASVAVNWRGCSGEPNLLPRSYHSGASEDLAEIVSHLRAQRPLAPLYAVGYSLGGNVLLKYLGESGVASQLEAAAAVSVPFRLDHCADRIGQGFSKVYQAHFMREMLAYVQLKQRHFHARGQHEQLATLERLGQLTNLRTFWDFDGKVTAPLNGFRDAHDYYRRSSSHFFLGQNRTPTLIIHSSDDPFVSSHSLPTARELSPQTRFELHDRGGHVGFVDG | failed |
| PGSPPGEGAPLAADVYVGNLPRDARVSDLKRALRELGSVPLRLTWQGPRRRAFLHYPDSAAAQQAVSCLQGLRLGTDTLRVALARQQRDK | not failed |
| MSKLTLGSYPHMLGFEQLERLLERSAKSGNEGYPPYNIEQTSETSYRITLAVAGFAEADLSITVEDRQLVIRGRQSDDSEGRVFLHRGIAARQFQRMFVLAEGVEVGEAVMENGLLHVDLSRAVPQSVVQTINIRKG | failed |
| MASLSELAVFIAVAEQGSFVGAGRVLGVSASAVGKRISRLEVDLGVRLLQRNTRSLALTAEGETVLSRGRSLLDEAESLRVVLERSSRQPGGVLRLSLPPIGGVLMAELAAFRQRYPEVALELDYSERNVDIIEEGFDAAIRVGAGDDGKLRSLALPGFRRLIVAAPDYLVRHGQPRSAAQLAEHQLIHYRSPNSGKLEAWPLVNAELPRALVCNSVHARLDFALQGQGIACLPDISIRRELEDGSLRPLLGSENGEKVVLRLLWPSSRGLSARMEAFLGFMRERSGAAPCENFKVRA | failed |
| MDSLRFNLQQSPFQLKPRILRPRITNISNRIDETDPRPSSSAGRIQRLVLNNEGRTKLNADPDREFYSYPRFVNHVDDSFISSLTELYRNRLRPGSTVLDLMSSWVSHLPEEVKYEKVVGHGLNAQELARNPRLDYFFVKDLNEDQKFEFEDKYFDAVLCSVGVQYLQQPEKVFAEVYRVLKPGGVLIVSFSNRMFYEKAIRVWRDGTEYSRIQLVVQYFQSIEGFTQPEIIRQQPGAQISVLTRLMGFIGLASTPDPFNAVIAYKNFKPIYE | failed |
| MQPGRSKAIPSRNASDKAYEPAVLLMRARVLHQQGQLDEARSAYKKVLKKAPDNFMALHFYALAEYQSGNAELGIKTLKRALLADPKSAQAQSDMGSMLIAVGRFADSLASCDKAIAIDPTLMLAYANRGLALSALARYEDAIASFDKAIELMPDRADTWNDRGNALHKLGRYTEALESYDKAIEIDPLSDVAFMNRAGTYKDLKQLDKALASYDRALSIGKRPVQAGLARAETLLFMRNVKDAMATCTAVLKVEPNSAIALTLLGNCMASLGDAETAIALHSRALELMPNYEAAISSKIFSMDFCAGSDVEAQQAVRSSWWTQIGAPIYRACATPPTNDRDPDRRLVVGYVSADFRAHSAAFSFRPVIEHHDHNQFEVVLYSGVVVPDDSTRAFEAIADKWRDATLMSDQGLADQIKEDKVDILVDLSGHSNGNRLRVFARKPAPVQVTAWGHATGTGLPVMDYLLGDPVAIPVEDRHFYAEAVYDLPSIVIIEPVPQQWRSLELPFDRNGYLTYGSLNRISKISDAAIEVWSQVLAASPTSRLILKDHQIDDPAVRQTLLEKFGARGIAAGRITLLGSSSRQDHLETLKQIDLCLDPFPQAGGVSTWEALHMGVPVVSRLGHTVPSRVGCAVLAAAGLPDFIAPNDARYIEIASKPELERLRSIRRGLRDFILQRCGPAAYTRAVEDAYRTMWKRWCAAPFDEAKDRALRRGR | failed |
| MTLTLLLLIFILISFISALTIIFITVKKGIFFNRLYLQSIIVCILFFTNWILYLSTFYALLPEKISEFLFLPIWFFLCILSFITFWREWRNNRVFSICIGFLSFISFLFVLFLLVLSGM | failed |
| MSKENPLKFLGIGSAFNPNYNNTSAYFELEDNLFLIDCGGGIFNSLLSLKLLEKYLHLNVLITHTHPDHIASLGQLILYCYYQLNKKITLIFPQSEIILNLLDYMGIRNDIYILKTPQDFVNYLSKLTVISLEQVHVNELPCFGYLIYLNNVTFYYSGDSKSIPLYILTKFLEGEIDFLFQDTCSENHNHHPHLSIKELSEQIPPSKRKQVYCMHIDEKFDVNLAKNLGFNIPQEIIVERDAK | failed |
| MQKLTRINDFNEVLNSRKSVKVFDENYKIPREEMDEIITKATKAPSSVNMQPWRIAVVQSDEMKEKVKESFGFNSRQLTTSSAMLIIFGDLQNYEKAEQIYGDAVEQQLMTEDIKAQLLDWILPYYKNLSREGMKDIVNIDSSLMAMQLMLTAKAHGYDTNPIGGFDKENIADIIGYDSDRYVPVLAIAIGKKAQDAHDSVRLPIDDVREFL | not failed |

From a protein production outcome set (Wang et al. 2014)
